{
  "source": "patent US20100209436",
  "key": {"[1]": {"test_system": "human OPA1 splice variant 7", "sequence (chain, as listed by the source mutant)": "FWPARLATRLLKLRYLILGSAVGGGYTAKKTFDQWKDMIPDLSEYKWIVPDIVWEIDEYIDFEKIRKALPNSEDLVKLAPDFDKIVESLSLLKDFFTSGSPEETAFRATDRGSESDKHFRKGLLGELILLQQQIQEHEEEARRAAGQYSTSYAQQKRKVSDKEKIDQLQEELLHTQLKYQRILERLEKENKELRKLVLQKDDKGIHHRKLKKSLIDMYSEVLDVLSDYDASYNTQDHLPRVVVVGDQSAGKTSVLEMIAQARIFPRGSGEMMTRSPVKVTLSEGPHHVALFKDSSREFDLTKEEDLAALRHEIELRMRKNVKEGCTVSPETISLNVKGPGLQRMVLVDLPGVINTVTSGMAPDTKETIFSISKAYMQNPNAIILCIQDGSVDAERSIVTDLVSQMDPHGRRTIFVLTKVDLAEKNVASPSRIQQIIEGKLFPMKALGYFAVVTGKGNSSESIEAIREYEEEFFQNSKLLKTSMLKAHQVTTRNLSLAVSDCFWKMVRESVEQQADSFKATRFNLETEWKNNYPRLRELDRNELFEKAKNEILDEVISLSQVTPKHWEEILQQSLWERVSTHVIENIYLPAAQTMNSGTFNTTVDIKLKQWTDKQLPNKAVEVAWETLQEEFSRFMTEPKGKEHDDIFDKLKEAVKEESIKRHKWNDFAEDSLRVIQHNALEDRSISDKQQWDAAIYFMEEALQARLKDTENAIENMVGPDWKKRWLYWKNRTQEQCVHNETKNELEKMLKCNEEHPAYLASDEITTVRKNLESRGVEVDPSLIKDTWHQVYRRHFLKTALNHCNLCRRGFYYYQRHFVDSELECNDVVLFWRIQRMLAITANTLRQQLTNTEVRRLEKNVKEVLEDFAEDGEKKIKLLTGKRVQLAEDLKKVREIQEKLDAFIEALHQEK"}, "[2]": {"test_system": "human OPA1 splice variant 4", "sequence (chain, as listed by the source mutant)": "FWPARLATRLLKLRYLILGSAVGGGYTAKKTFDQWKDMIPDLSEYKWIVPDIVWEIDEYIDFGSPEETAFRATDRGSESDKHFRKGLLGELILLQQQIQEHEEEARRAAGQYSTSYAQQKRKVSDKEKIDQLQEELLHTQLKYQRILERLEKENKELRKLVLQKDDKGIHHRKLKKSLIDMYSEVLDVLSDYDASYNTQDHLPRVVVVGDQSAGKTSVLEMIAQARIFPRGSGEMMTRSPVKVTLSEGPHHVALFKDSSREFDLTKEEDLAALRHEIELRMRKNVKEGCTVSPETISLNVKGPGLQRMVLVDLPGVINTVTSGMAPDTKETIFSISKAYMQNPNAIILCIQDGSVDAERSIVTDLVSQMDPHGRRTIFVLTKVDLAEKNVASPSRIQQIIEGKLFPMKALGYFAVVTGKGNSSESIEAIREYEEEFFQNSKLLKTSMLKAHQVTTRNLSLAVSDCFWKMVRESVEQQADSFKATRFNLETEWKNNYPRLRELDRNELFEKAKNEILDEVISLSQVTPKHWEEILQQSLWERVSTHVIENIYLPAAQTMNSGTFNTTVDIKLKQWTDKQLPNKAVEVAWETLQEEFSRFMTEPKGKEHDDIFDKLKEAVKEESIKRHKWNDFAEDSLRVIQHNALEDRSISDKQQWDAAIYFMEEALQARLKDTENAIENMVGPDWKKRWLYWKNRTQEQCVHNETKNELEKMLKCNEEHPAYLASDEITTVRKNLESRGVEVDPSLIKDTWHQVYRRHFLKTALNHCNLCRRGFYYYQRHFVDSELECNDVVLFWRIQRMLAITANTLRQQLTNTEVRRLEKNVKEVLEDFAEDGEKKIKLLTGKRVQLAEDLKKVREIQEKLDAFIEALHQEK"}, "[3]": {"test_system": "human OPA1 splice variant 8 (A210V polymorphism)", "sequence (chain, as listed by the source A210V)": "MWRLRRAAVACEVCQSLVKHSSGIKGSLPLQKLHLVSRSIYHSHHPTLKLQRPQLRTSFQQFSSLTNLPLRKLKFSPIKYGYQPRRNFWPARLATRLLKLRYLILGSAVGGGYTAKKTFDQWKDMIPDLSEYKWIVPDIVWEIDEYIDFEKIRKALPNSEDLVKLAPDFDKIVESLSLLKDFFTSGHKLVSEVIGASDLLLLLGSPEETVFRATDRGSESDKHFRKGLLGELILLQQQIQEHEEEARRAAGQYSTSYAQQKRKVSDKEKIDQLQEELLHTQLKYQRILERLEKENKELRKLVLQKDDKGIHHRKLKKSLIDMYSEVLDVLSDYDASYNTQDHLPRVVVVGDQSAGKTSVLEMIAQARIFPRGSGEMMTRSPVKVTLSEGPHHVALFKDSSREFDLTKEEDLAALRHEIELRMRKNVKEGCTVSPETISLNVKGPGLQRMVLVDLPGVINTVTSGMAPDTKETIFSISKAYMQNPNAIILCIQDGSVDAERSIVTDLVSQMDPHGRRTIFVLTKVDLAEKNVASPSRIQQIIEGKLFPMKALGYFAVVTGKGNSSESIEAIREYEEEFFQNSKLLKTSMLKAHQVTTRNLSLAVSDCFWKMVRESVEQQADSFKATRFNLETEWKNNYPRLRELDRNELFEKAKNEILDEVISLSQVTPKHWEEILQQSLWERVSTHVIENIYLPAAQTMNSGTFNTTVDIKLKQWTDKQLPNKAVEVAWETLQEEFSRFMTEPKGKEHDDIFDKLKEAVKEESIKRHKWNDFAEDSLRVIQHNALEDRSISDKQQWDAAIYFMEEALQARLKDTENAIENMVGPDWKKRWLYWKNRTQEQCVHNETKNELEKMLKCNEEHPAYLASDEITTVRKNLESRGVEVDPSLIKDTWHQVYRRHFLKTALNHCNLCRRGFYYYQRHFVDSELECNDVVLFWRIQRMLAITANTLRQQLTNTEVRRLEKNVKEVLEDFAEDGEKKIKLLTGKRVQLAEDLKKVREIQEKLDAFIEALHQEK"}},
  "data": [
    {"substance": "proteolytically inactive murine Afg3l2^E574Q (Yta10 (1-61)-Afg3l2^E574Q (36-802)-HA)", "values": [
      {"measurement": "OPA1 processing (western blot, Δyta10Δyta12 yeast)", "setting": "[1]", "value": "Cleavage was abolished when point mutations were introduced in the proteolytic center of Afg3l1 or Afg3l2."}
    ]},
    {"substance": "hetero-oligomeric Afg3l1^E567Q/paraplegin complex (murine)", "values": [
      {"measurement": "OPA1 processing (western blot, Δyta10Δyta12 yeast)", "setting": "[2]", "value": "splice variant 4 was processed only to a very minor extent by the Afg3l2^E567Q/paraplegin complex but not by the Afg3l1^E567Q/paraplegin complex"},
      {"measurement": "OPA1 processing (western blot, Δyta10Δyta12 yeast)", "setting": "[1]", "value": "Slight OPA1 processing, in particular formation of S3, was detectable with both the Afg3l2^E567Q/paraplegin complex and the Afg3l1^E567Q/paraplegin complex"},
      {"measurement": "OPA1 processing (western blot, Δyta10Δyta12 yeast)", "setting": "[3]", "value": "A similar dependency was observed for splice variant 8"}
    ]},
    {"substance": "Afg3l2^E574Q/paraplegin^E575Q complex (murine, both subunits proteolytically inactive)", "values": [
      {"measurement": "OPA1 processing (western blot, Δyta10Δyta12 yeast)", "setting": "[1]", "value": "small OPA1 isoforms were not detected when both, Afg 3l1 and paraplegin, or Afg 3l2 and paraplegin, contained point mutations in their proteolytic centres"}
    ]},
    {"substance": "homo-oligomeric murine Afg3l2 complex (Yta10 (1-61)-Afg3l2 (36-802)-HA)", "values": [
      {"measurement": "OPA1 processing (western blot, Δyta10Δyta12 yeast)", "setting": "[2]", "value": "Afg3l1 and Afg3l2 complexes mediated processing of OPA1 splice variants 4 and 8 in a similar manner"},
      {"measurement": "OPA1 processing (western blot, Δyta10Δyta12 yeast)", "setting": "[1]", "value": "expression of each of the murine subunits, Afg3l2 or Afg3l1, in Δyta10Δyta12 cells promoted OPA1 processing; expression of Afg3l2 preferentially led to the formation of the S3 isoform"},
      {"measurement": "OPA1 processing (western blot, Δyta10Δyta12 yeast)", "setting": "[3]", "value": "Afg3l1 and Afg3l2 complexes mediated processing of OPA1 splice variants 4 and 8 in a similar manner"}
    ]},
    {"substance": "hetero-oligomeric Afg3l2^E574Q/paraplegin complex (murine)", "values": [
      {"measurement": "OPA1 processing (western blot, Δyta10Δyta12 yeast)", "setting": "[2]", "value": "splice variant 4 was processed only to a very minor extent by the Afg3l2^E567Q/paraplegin complex"},
      {"measurement": "OPA1 processing (western blot, Δyta10Δyta12 yeast)", "setting": "[1]", "value": "Slight OPA1 processing, in particular formation of S3, was detectable with both the Afg3l2^E567Q/paraplegin complex and the Afg3l1^E567Q/paraplegin complex"},
      {"measurement": "OPA1 processing (western blot, Δyta10Δyta12 yeast)", "setting": "[3]", "value": "A similar dependency was observed for splice variant 8"}
    ]},
    {"substance": "proteolytically inactive murine Afg3l1^E567Q (Yta10 (1-61)-Afg3l1^E567Q (25-789)-Myc)", "values": [
      {"measurement": "OPA1 processing (western blot, Δyta10Δyta12 yeast)", "setting": "[1]", "value": "Cleavage was abolished when point mutations were introduced in the proteolytic center of Afg3l1 or Afg3l2."}
    ]},
    {"substance": "Afg3l1^E567Q/paraplegin^E575Q complex (murine, both subunits proteolytically inactive)", "values": [
      {"measurement": "OPA1 processing (western blot, Δyta10Δyta12 yeast)", "setting": "[1]", "value": "small OPA1 isoforms were not detected when both, Afg 3l1 and paraplegin, or Afg 3l2 and paraplegin, contained point mutations in their proteolytic centres"}
    ]}
  ]
}
